Experiment [1] has as its target T1, human LILRB4 extracellular domain (ECD) recombinant protein (human, UniProt Q8NHJ6 22-259).
T1 construct: extracellular domain; also called LILRB4 ECD; LILRB4-ECD
The experiment can be described thus: ELISA, coated LILRB4 ECD. The procedure:
FIG. 22 illustrates the determination of exemplary LILRB4 monoclonal antibody (mAbs) binding to human LILRB4 ECD using a concentration titration (0-10 μg/ml) by ELISA. X axis indicates the antibody concentrations and Y-axis is binding signals in OD (450 nm). LILRB4 ECD recombinant protein was coated on high absorption 96-well plates. Serial diluted (3-fold) LILRB4 mAb was added to the coated/blocked and detected using goat anti-rabbit IgG F(ab)₂-conjugated HRP as secondary antibody. The titration curves were fitted using 4-parameter fitting curve using the GraphPad software for EC50 estimation.

The target in experiment [2] is T1, human LILRB4 extracellular domain (ECD) …. The experiment can be described thus: Octet BLI, antibody on protein A sensor, recombinant human LILRB4 in solution. The procedure: FIG. 26 illustrates the kinetic binding measurements (sensor-grams) for exemplary LILRB4 antibodies determined using Octet. Antibody at 30 μg/mL was loaded to the proteins A sensor for 4 min. Following a short baseline in kinetics buffer, the loaded sensors were exposed to a series of recombinant human LILRB4 concentrations (0.1-200 nM) and background subtraction was used to correct for sensor drifting. All experiments were performed with shaking at 1,000 rpm. Background wavelength shifts were measured from reference sensors that were loaded only with antibody. ForteBio's data analysis software was used to fit the data to a 1:1 binding model to extract an association rate and dissociation rate. The KD was calculated by the ratio koff/kon using ForteBio's data analysis software 7.0.

Experiment [3] shares this target. The experiment is described as follows: ELISA.
Experiment [4] has the same target. The experiment can be described thus: Octet.
The target in a further experiment is LILRB1 (human (not printed on the sheet), UniProt Q8NHL6). The experiment is described as follows: LILR reporter cells on coated antibody, GFP positive (%). The procedure:
(§1) FIGS. 41A-41M illustrate specific binding of h193 antibodies to LILRB4 protein. FIGS. 41A-41L illustrate the specificity of h193 antibodies determined by LILR reporter assays, in which LILR reporter cells are added to the plates coated with h193 antibodies. The binding of h193 antibodies to the ECD of the LILR member on the surface of the reporter cells induced GFP signal. FIG. 41M illustrates the specificity of an exemplary h193 antibody determined by ELISA. LILRA and LILRB recombinant proteins were coated on high absorption 96-well plates. Serial diluted (5-fold) mAb h193 were added to the coated/blocked plates and detected using goat anti-human IgG F(ab)2 conjugated HRP as secondary antibody.

The next experiment has as its target LILRB2 (human (not printed on the sheet), UniProt Q8N423). Described as above. How it is done:
as §1

In the next experiment the target is LILRB3 (human (not printed on the sheet), UniProt O75022). The experiment is described as above. The procedure:
as §1

Another experiment addresses LILRB5 (human (not printed on the sheet), UniProt O75023). Described as above. How it is done:
as §1

Another experiment has as its target LILRA1 (human (not printed on the sheet), UniProt O75019). The description is as above. The procedure:
as §1

The target in the next experiment is LILRA2 (human (not printed on the sheet), UniProt Q8N149). The description is as above. The procedure: as §1
Chain of LILRA2 (Q8N149 24-449 limits assumed): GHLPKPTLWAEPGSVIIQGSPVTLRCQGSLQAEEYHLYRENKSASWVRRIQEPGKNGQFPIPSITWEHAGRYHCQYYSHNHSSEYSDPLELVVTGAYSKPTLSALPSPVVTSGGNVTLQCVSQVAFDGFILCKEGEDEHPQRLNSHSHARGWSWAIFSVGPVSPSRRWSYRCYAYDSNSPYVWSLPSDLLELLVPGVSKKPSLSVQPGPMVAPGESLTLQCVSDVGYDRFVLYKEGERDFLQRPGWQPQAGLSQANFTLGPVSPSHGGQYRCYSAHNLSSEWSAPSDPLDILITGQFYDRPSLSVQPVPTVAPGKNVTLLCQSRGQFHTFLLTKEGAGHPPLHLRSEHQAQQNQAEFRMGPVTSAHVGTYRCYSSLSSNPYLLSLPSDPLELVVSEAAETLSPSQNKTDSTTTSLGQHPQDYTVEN
For a further experiment, the target named is LILRA3 (human (not printed on the sheet), UniProt Q8N6C8). The experiment is described as above. How it is done: as §1
Chain of LILRA3 (Q8N6C8 24-439 limits assumed): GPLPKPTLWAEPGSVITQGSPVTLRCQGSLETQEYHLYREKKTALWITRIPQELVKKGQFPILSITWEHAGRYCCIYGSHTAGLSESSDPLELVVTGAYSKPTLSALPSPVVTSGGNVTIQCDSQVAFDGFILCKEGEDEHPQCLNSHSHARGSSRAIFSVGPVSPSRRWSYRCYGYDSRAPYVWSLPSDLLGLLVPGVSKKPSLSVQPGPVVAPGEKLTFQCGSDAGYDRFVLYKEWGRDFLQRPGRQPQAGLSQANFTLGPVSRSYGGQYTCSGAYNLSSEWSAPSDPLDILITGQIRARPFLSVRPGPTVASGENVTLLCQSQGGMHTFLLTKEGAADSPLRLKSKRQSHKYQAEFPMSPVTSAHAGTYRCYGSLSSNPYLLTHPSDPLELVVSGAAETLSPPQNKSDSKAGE
The target of a further experiment is LILRA4 (human (not printed on the sheet), UniProt P59901). The description is as above. How it is done: as §1
Chain of LILRA4 (P59901 24-446 limits assumed): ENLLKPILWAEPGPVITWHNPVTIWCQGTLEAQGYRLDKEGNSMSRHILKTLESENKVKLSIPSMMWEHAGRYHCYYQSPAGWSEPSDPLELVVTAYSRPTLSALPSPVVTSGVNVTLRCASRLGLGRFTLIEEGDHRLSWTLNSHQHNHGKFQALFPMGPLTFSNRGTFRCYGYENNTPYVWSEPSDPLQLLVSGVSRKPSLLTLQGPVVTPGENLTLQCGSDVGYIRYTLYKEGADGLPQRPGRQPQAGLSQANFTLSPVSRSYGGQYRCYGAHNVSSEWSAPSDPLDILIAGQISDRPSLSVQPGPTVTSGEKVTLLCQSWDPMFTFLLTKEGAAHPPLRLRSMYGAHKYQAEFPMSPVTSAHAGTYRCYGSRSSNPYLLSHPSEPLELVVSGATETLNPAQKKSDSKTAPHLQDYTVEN
The next experiment addresses LILRA5 (human (not printed on the sheet), UniProt A6NI73). The experiment is described as above. How it is done:
as §1

The target of the next experiment is LILRA6 (human (not printed on the sheet), UniProt Q6PI73). Described as above. How it is done: as §1
Chain of LILRA6 (Q6PI73 24-447 limits assumed): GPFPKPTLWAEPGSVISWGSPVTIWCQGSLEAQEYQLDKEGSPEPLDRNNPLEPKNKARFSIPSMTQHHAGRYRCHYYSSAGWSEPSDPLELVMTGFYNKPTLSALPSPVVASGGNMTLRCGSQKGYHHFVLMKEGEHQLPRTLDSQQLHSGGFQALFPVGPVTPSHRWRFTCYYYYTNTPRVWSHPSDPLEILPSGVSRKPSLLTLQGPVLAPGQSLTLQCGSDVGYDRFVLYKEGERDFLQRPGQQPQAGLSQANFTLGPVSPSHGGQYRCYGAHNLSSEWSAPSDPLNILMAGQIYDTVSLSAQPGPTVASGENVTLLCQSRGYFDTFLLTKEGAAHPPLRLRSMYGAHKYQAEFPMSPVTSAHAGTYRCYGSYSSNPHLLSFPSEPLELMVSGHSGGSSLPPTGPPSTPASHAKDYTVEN

“And” between values parts separate entries of the source, which are not always exact repeats. Equal values may be shown once.

Chain of LILRB3 (O75022 24-443 limits assumed): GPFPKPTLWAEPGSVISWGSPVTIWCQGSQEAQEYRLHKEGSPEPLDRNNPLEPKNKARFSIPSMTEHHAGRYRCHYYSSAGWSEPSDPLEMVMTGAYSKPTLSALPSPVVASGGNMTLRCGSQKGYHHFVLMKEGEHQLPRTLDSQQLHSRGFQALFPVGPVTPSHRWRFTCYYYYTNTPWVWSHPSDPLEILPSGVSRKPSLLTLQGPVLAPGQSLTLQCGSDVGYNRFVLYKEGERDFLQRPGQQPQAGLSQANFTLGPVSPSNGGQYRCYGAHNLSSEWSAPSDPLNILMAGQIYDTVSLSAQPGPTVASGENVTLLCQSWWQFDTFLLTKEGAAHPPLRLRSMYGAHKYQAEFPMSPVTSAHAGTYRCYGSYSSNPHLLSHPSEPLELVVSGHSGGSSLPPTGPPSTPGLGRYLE
Chain of LILRA5 (A6NI73 42-268 limits assumed): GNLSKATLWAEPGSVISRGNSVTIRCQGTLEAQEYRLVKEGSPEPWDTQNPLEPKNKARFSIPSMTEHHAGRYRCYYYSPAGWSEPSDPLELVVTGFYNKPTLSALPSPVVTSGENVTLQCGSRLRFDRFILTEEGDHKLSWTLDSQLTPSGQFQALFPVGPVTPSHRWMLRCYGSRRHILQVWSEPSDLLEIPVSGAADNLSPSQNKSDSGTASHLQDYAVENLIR
Chain of LILRB1 (Q8NHL6 24-461 limits assumed): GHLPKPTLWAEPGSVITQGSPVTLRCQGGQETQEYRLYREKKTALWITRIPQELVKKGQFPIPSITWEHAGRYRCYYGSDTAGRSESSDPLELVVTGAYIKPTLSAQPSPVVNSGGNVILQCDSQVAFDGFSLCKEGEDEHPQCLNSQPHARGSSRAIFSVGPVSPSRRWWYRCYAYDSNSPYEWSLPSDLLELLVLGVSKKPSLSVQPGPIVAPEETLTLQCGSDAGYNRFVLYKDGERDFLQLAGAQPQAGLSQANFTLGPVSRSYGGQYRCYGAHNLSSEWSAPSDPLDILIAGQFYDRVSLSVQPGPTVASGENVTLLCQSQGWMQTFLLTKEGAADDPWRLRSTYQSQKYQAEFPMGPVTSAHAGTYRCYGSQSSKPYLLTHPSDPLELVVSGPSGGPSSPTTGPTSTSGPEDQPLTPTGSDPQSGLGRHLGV
Chain of LILRA1 (O75019 17-461 limits assumed): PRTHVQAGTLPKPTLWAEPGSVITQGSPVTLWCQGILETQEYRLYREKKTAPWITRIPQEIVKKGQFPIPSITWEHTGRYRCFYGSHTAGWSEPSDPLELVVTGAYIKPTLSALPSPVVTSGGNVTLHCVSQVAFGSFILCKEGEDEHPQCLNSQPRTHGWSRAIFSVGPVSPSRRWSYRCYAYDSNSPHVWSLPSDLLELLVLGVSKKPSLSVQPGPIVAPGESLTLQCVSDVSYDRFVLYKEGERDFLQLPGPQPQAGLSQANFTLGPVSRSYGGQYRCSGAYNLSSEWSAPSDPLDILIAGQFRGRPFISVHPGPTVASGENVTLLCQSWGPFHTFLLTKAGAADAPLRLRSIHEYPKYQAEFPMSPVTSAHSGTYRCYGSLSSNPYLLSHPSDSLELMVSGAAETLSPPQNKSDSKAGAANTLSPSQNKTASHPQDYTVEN
Chain of LILRB2 (Q8N423 22-460 limits assumed): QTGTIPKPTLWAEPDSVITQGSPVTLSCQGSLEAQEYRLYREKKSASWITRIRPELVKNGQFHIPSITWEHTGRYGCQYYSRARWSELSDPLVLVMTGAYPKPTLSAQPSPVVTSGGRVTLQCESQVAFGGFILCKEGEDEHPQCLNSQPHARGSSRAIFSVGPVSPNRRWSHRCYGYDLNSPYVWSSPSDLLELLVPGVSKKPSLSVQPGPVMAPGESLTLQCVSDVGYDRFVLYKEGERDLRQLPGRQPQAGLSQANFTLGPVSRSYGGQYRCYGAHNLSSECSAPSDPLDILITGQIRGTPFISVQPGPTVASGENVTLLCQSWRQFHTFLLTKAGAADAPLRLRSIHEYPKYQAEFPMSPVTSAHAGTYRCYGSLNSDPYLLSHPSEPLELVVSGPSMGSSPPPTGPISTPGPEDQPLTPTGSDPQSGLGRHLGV
Chain of LILRB5 (O75023 24-458 limits assumed): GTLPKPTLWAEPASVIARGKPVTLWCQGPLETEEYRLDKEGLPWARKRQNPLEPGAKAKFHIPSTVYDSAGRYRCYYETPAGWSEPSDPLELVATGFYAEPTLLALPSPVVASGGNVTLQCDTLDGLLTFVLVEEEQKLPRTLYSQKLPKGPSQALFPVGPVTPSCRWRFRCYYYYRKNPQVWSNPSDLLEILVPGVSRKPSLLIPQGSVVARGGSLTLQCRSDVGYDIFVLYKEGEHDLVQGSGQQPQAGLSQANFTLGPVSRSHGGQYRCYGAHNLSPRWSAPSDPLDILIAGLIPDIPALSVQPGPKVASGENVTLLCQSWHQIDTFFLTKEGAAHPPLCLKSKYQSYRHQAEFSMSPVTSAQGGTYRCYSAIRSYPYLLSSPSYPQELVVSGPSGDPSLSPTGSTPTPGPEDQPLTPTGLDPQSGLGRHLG

B1: B4-72-2 (antibody, V domains shown)
VH: EQSVEESGGRLVTPGTPLTLTCTASGFSLSSYYMSWVRQAPGRGLEYIGVINTGGSAVYATWTKGRFTISRTSTTVDLKMTGLTTEDTATYFCARGWSRGDLWGQGTLVTISS
VL: ELDMTQTPSPVSAAVGGTVTIKCQSSQNVYDDDTLSWYQQKPGQPPKLLIYDASKLASGVPDRFSGSGSGTQFTLTISGVQCDDAATYYCLGVFHDGINNAFGGGTEVEIK
notes: Rabbit monoclonal antibody
For B1, in [1], the EC50 is 0.29 nM. Also, the Kd in experiment [2] is 3.73 nM.

B2: B4-116-1 (antibody, V domains shown)
VH: EQSVEESGGDLVKPGASLTLTCAASGFSFSSTYCMCWVRQAPGKGLEWIACIHGVSTNNRWYASWPKGRFTISKTSSTTVTLQMTSLTAADTATYFCARSDTDYEWGLSLWGPGTLVTISS
VL: ELDLTQTPASVSEPVGGTVTIKCQASESIGSRLAWYQQKPGQRPKLLIYKASTLASGVPSRFSGSGSGTEFTLTVSDLECADVAAYYCQCAGQSSTWAFGGGTEVEIK
notes: Rabbit monoclonal antibody
Take B2: the EC50 in experiment [1] is 2.58 nM. The dissociation constant (Kd) in [2] came to 0.82 nM.

B3: B4-116-2 (antibody, V domains shown)
VH: EQSVEESGGDLVKPGASLTLTCAASGFSFSSTYCMCWVRQAPGKGLEWIACIHGVSTNNRWYASWPKGRFTISKTSSTTVTLQMTSLTAADTATYFCARSDTDYEWGLSLWGPGTLVTISS
VL: ELVMTQTPASVEAVVGGTVTIKCQASESIGSRLAWYQQKPGQRPKLLIYKASTLASGVPSRFSGSGSGTEFTLTVSDLECADVAAYYCQCAGQSSTWAFGGGTEVVVK
notes: Rabbit monoclonal antibody
Consider B3, for which, in [1], the EC50 is 1.7 nM. For the same molecule, the Kd in experiment [2] worked out at 0.495 nM.

B4: B4-86 (antibody, V domains shown)
VH: EQSVESGGDLVKPEGSLTLTCTVSGFSFSSSYWICWVRQAPGKGLEWIGCIGTGSGSTYYGSWAKGRFTISKTSSTTVTLQMTSLTAADTATYFCVRGAGYSSYRLWGPGTLVTISS
VL: ELDMTQTPASVSEPVGGTVTIKCQASESVSNWLAWYQQKPGQRPKLLIYGASTLESGVPSRFSGSGSGTEFTLTISNLECADAATYYCQQGYDWDNIDNAFGGGTEVVVK
notes: Rabbit monoclonal antibody
Consider B4, for which the EC50 in experiment [1] is 1.02 nM. The Kd in experiment [2] was 0.344 nM.

B5: B4-15-1 (antibody, V domains shown)
VH: SGGLEESGGRLVTPGTPLTLTCTASGFTINSAHMSWVRQAPGKGLEWIGFSTTGGPSYYANWAKGRFTISRTSTTVDLEITSPTIEDTATYFCARDGPGNNIDMDLWGQGTLVTITS
VL: ELDLTQTPASVSEPVGGTVTIKCQASQNRGGSIAWYQQKPGQPPKLLIYSASTLASGVPSRFSGSGYGTEFTLTISGVQCADAGTYYCQSTIYSISDIGAFGGGTEVVVK
notes: Rabbit monoclonal antibody against human LILRB4 ECD
For the molecule B5, the EC50 in [1] is 0.99 nM.

B6: h193 antibody No. 35 (h193-H7 / h193-K1) (antibody, V domains shown)
VH: EVQLVESGGGLVQPGGSLRLSCAASGFSLSSSYWISWVRQAPGKGLEWIGSIDSGSVGITYYATWVKGRFTISRDNSKNTLYLQMNSLRAEDTAVYYCARHGDNWALDLWGQGTLVTVSS
VL: DIQMTQSPSTLSASVGDRVTITCQASQSINSWLAWYQQKPGKAPKLLIYKASTLASGVPSRFSGSGSGTEFTLTISSLQPDDFATYYCQHGYIRGDLDNVFGGGTKVEIK
As for B6, the EC50 in [3] is 0.162 µg/mL and 1.08 nM. Also, the Kd in experiment [4] came out at 1.05 nM. In addition, the koff in experiment [4] was found to be 0.000148 s⁻¹. For the same molecule, in [4], the kon worked out at 141000 M⁻¹ s⁻¹. For the same molecule, the binding result with LILRB1, with LILRB2, with LILRB3, with LILRB5, with LILRA1 and with LILRA2 was “no binding” throughout. Moreover, the binding result with LILRA3, with LILRA4, with LILRA5 and in the experiment with LILRA6 was “no binding” in each case.

B7: h193 antibody No. 36 (h193-H7 / h193-K2) (antibody, V domains shown)
VH: EVQLVESGGGLVQPGGSLRLSCAASGFSLSSSYWISWVRQAPGKGLEWIGSIDSGSVGITYYATWVKGRFTISRDNSKNTLYLQMNSLRAEDTAVYYCARHGDNWALDLWGQGTLVTVSS
VL: DLVMTQSPSTLSASVGDRVTITCQASQSINSWLAWYQQKPGKPPKLLIYKASTLASGVSSRFSGSGSGTEFTLTISSLQPDDVATYYCQHGYIRGDLDNVFGGGTKVEIK
As for B7, in [3], the EC50 is 0.145 µg/mL and 0.96 nM. Further, the Kd in experiment [4] came to 1.01 nM. Moreover, the koff in [4] turned out to be 0.000144 s⁻¹. The kon in experiment [4] is 143000 M⁻¹ s⁻¹. The binding result with LILRB1, with LILRB2, with LILRB3, with LILRB5, in the experiment with LILRA1 and in the experiment with LILRA2 was “no binding” throughout. Besides, the binding result with LILRA3, in the experiment with LILRA4, with LILRA5 and in the experiment with LILRA6 was “no binding” each time.

B8: h193 antibody No. 37 (h193-H7 / h193-K3) (antibody, V domains shown)
VH: EVQLVESGGGLVQPGGSLRLSCAASGFSLSSSYWISWVRQAPGKGLEWIGSIDSGSVGITYYATWVKGRFTISRDNSKNTLYLQMNSLRAEDTAVYYCARHGDNWALDLWGQGTLVTVSS
VL: DIQMTQSPSTLSASVGDRVTITCRASQSINSWLAWYQQKPGKAPKLLIYKASTLASGVPSRFSGSGSGTEFTLTISSLQPDDFATYYCQHGYIRGDLDNVFGGGTKVEIK
On to B8, for which the EC50 in experiment [3] was 0.163 µg/mL and 1.08 nM. The Kd in experiment [4] was found to be 0.984 nM. Also, the koff in [4] amounted to 0.00014 s⁻¹. For the same molecule, the kon in [4] was determined as 143000 M⁻¹ s⁻¹. Besides, the binding result in the experiment with LILRB1, with LILRB2, with LILRB3, with LILRB5, with LILRA1 and with LILRA2 was “no binding” throughout. For the same molecule, the binding result in the experiment with LILRA3, with LILRA4, with LILRA5 and with LILRA6 was “no binding” each time.

B9: B4-49 (antibody, V domains shown)
VH: QSLEESGGDLVKPGASLTLTCTASGFDFSSSGWICWVRQAPGKGLELIACIYSGRSGSTYYASWAKGRVTISKTSSTTVTLQMTSLTAADTATYFCARALYVDYVDYDYIDLWGPGTLVTVSS
VL: ELDLTQTPASVEAAVGGTVTIKCQASQSTGIRLAWYQQKPGQPPKLLMYATSNLASGVSSRFKGSGSGTEFTLTISDLECADAATYYCQYSYYGSSYVFDFGGGTEVEIK
notes: Rabbit monoclonal antibody
B9: in experiment [1], the EC50 turned out to be 1.01 nM. Also, in experiment [2], the dissociation constant (Kd) was determined as 0.0233 nM.
